Biological target: cAMP-responsive element binding protein CREB-1 (UniProt P16220 1-327)
Assay: cell-based or functional assay

Chain of cAMP-responsive element binding protein CREB-1 (P16220 whole entry): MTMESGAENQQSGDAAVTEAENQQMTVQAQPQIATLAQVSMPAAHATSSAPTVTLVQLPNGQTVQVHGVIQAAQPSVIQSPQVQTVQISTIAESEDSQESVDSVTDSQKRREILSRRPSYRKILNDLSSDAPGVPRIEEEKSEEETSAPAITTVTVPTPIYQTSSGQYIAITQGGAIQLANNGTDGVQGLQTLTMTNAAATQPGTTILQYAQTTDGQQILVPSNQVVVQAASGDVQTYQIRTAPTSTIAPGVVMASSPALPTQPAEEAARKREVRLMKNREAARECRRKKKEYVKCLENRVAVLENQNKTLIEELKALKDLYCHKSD

basal levels of Gal4-BD-CREB-1 activation of a Gal4 luciferase reporter in HEK 293T cells with Foxp3 overexpressed (Figure 7C): > 2 fold
B1: human Foxp3 (natural protein, UniProt Q9BZS1 1-431, looked up)
chain: MPNPRPGKPSAPSLALGPSPGASPSWRAAPKASDLLGARGPGGTFQGRDLRGGAHASSSSLNPMPPSQLQLPTLPLVMVAPSGARLGPLPHLQALLQDRPHFMHQLSTVDAHARTPVLQVHPLESPAMISLTPPTTATGVFSLKARPGLPPGINVASLEWVSREPALLCTFPNPSAPRKDSTLSAVPQSSYPLLANGVCKWPGCEKVFEEPEDFLKHCQADHLLDEKGRAQCLLQREMVQSLEQQLVLEKEKLSAMQAHLAGKMALTKASSVASSDKGSCCIVAAGSQGPVVPAWSGPREAPDSLFAVRRHLWGSHGNSTFPEFLHNMDYFKFHNMRPPFTYATLIRWAILEAPEKQRTLNEIYHWFTRMFAFFRNHPATWKNAIRHNLSLHKCFVRVESEKGAVWTVDELEFRKKRSQRPSRCSNPTPGP
